Laboratory results as given in US20150299255A1 (SUSAVION BIOSCIENCES, published 2015).
Where no end group is shown, it is not given here.

How the values were obtained:
receptor NKG2D [1] = molecular target: T1, receptor NKG2D (UniProt P26718 80-216); experiment: isothermal microcalorimetry; SVH1C (100 µM) titrated into NKG2D (11 µM monomer)
T1 sequence (looked up): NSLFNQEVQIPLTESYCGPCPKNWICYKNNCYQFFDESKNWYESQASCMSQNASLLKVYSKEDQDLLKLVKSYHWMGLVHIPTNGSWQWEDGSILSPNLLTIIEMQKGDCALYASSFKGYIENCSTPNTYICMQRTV

receptor NKG2D [2] = molecular target: T1, receptor NKG2D; experiment: isothermal microcalorimetry; NKG2D concentration entered as monomeric binding sites
[3] = molecular target: T2, lectin MAA from Maackia amurensis (Maackia amurensis); experiment: solid-phase competition; fetuin at one-third, equal or 5-fold the molar concentration of peptide; MAA
T2 construct: Plant lectin; peroxidase-conjugated in the solid-phase assays
T2 sequence (P0DKL3 30-278): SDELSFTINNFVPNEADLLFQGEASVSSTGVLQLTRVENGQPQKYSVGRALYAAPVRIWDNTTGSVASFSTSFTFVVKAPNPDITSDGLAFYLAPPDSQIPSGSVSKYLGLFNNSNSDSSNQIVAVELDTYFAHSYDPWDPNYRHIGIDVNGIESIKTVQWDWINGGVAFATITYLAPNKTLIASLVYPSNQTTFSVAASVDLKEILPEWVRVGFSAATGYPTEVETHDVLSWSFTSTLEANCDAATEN

| Binder | Ka (receptor NKG2D [1]) [M⁻¹] | Kd (receptor NKG2D [1]) [nM] | stoichiometry, n (receptor NKG2D [2]) | percent inhibition of SVH1C binding at a 5-fold molar excess of fetuin [3] [%] |
| --- | --- | --- | --- | --- |
| SVH1C ([NPSHPLSGGGGS]4K3-NH2) (also: four copies of chain 1 bound by their C-termini to the four amino groups of the branched tri-lysine core, also called quadravalent SVH1C; lead peptide) peptide: NPSHPLSGGGGS Lys-Lys-Lys-NH2 | 1.7e+06 | 600 | 0.71 | – |
| fetuin (other, UniProt P12763 19-359, looked up, 12 to 15 oligosaccharides terminating predominantly as Neu5Ac-Gal on three N-linked and three O-linked glycans, acts through its sialylated glycans; also called glycoprotein fetuin; sialylated protein, fetuin) IPLDPVAGYKEPACDDPDTEQAALAAVDYINKHLPRGYKHTLNQIDSVKVWPRRPTGEVYDIEIDTLETTCHVLDPTPLANCSVRQQTQHAVEGDCDIHVLKQDGQFSVLFTKCDSSPDSAEDVRKLCPDCPLLAPLNDSRVVHAVEVALATFNAESNGSYLQLVEISRAQFVPLPVSVSVEFAVAATDCIAKEVVDPTKCNLLAEKQYGFCKGSVIQKALGGEDVRVTCTLFQTQPVIPQPQPDGAEAEAPSAVPDAAGPTPSAAGPPVASVVVGPSVVAVPLPLHRAHYDLRHTFSGVASVESSSGEAFHVGKTPIVGQPSIPGGPVRLCPGRIRYFKI | – | – | – | 90 |
